The values that follow come from US10022453B2 (BAYER PHARMA AKTIENGESELLSCHAFT, priority 2013, dated 2018).

One data set has as its system Caco-2 cells. Nature of the data set: Cell permeability, flux assay using Caco-2 cells.
The target of a further data set is T1, TWEAKR-Fc mutein L65Q (Homo sapiens, UniProt Q9NP84, L65Q).
T1 construct: the full-length ectodomain (amino acids 28-80); made in house
Nature of the data set: ELISA, effect of TWEAKR-Fc muteins on antibody binding. The following applies: 62 ng/ml mutein coated, biotinylated IgG from 100 nM. On the procedure:
(§1) Effect of TWEAKR-Fc Muteins on the Antibody Affinity
(§2) To this end, the full-length ectodomain (amino acids 28-80) having the individual amino acid substitutions below were expressed and purified as Fc fusion proteins: T33Q; S40R; W42A; M50A; R56P; H60K; L65Q.
(§3) Detection was carried out using streptavidin-HRP and Amplex Red.
(§4) The dose-reaction data were fitted and the IC50s were determined.
A general note: ELISA stands for enzyme-linked immunosorbent assay.

A further data set has as its target T2, TWEAKR-Fc mutein R56P (Homo sapiens, UniProt Q9NP84, R56P).
T2 construct: the full-length ectodomain (amino acids 28-80); made in house
Described as above. As to conditions: 62 ng/ml mutein coated, biotinylated IgG from 100 nM. On the procedure: as §1, §2, §3, §4

For the next data set, the target named is T3, TWEAKR-Fc mutein W42A (Homo sapiens, UniProt Q9NP84, W42A).
T3 construct: the full-length ectodomain (amino acids 28-80); made in house
Described as above. The following applies: 62 ng/ml mutein coated, biotinylated IgG from 100 nM. The procedure: as §1, §2, §3, §4

The target of a further data set is T4, TWEAKR-Fc WT (TPP-599) (Homo sapiens, UniProt Q9NP84).
T4 construct: hTNFRSF12 amino acids a28-80-hIgG1-Fc
The data set is described as above. As to conditions: 62 ng/ml TWEAKR-Fc coated, biotinylated IgG from 100 nM. On the procedure:
as §1, §2, §3, §4

The next data set concerns the target T5, TWEAKR-Fc mutein S40R (Homo sapiens, UniProt Q9NP84, S40R).
T5 construct: the full-length ectodomain (amino acids 28-80); made in house
The data set is described as above. As to conditions: 62 ng/ml mutein coated, biotinylated IgG from 100 nM. On the procedure: as §1, §2, §3, §4

The target in the next data set is T6, TWEAKR-Fc mutein H60K (Homo sapiens, UniProt Q9NP84, H60K).
T6 construct: the full-length ectodomain (amino acids 28-80); made in house
The description is as above. The following applies: 62 ng/ml mutein coated, biotinylated IgG from 100 nM. The procedure:
as §1, §2, §3, §4

Another data set addresses T7, TWEAKR-Fc mutein M50A (Homo sapiens, UniProt Q9NP84, M50A).
T7 construct: the full-length ectodomain (amino acids 28-80); made in house
Described as above. The following applies: 62 ng/ml mutein coated, biotinylated IgG from 100 nM. On the procedure:
as §1, §2, §3, §4

The next data set addresses T8, TWEAKR-Fc mutein T33Q (Homo sapiens, UniProt Q9NP84, T33Q).
T8 construct: the full-length ectodomain (amino acids 28-80); made in house
The description is as above. The following applies: 62 ng/ml mutein coated, biotinylated IgG from 100 nM. The procedure:
as §1, §2, §3, §4

For data set [1], the target named is T9, recombinant human TWEAKR protein (TPP-2305) (Homo sapiens, UniProt Q9NP84).
T9 construct: purchased Fitzgerald Inc 30R-AT080
Nature of the data set: Binding affinities by Biacore analysis. The following applies: monovalent. The procedure: Determination of Binding Affinities by Biacore Analysis:
Binding affinities of anti-TWEAKR antibodies were examined using surface plasmon resonance analysis on a Biacore T100 instrument (GE Healthcare Biacore, Inc.). The antibodies were immobilized on a CM5 sensor chip using an indirect capture reagent, anti-human IgG(Fc). […] Anti-TWEAKR antibodies were injected at a concentration of 10 μg/ml at […] for 10 sec.
Sensorgrams were generated after in-line reference cell correction, followed by subtraction of the buffer sample. The dissociation constant (KD) was calculated based on the ratio of association (kon) and dissociation (koff) constants, obtained by fitting sensorgrams using a 1:1 first order binding model.
On the technique in general: In SPR one partner is held on a chip, and binding of the other changes the refractive index at the surface.

Data set [2] deals with T9, recombinant human TWEAKR protein (TPP-2305). The following applies: published data (WO2009/020933, WO2009/140177, literature); cited from earlier work.

With `CC(C)(C)[C@H](c1nn(-c2cc(F)ccc2F)cc1Cc1ccccc1)N(CC[C@H](N)C(=O)NCCC(=O)NCCN1C(=O)CC(SC[C@H](N)C(=O)O)C1=O)C(=O)CO.O=C(O)C(F)(F)F` (stereo partly shown) [Example 92], in the data set with Caco-2 cells (Caco-2, 2 hours), the “Papp (B-A)” value was 0.4 ×10⁻⁶ cm/s. In the data set on Caco-2 cells (Papp (B-A) to Papp (A-B), Caco-2), the Efflux ratio is 3.

B1: 18.3.3(TPP-2193): comparative anti-TWEAKR antibody; variable domains from WO2009/020933, constant region added, "resulting in full-length IgGs" (protein)
light: DIVLTQSPASLAVSLGQRATISCKASQSVSTSTYSYMQWYQQRPGQSPKLLIKYASKLDSGVPARFSGSGSGTDFTLNIHPVEEEDTATYYCQHSWELPYTFGGGTRLEIKRADAAPTVSIFPPSSEQLTSGGASVVCFLNNFYPKDINVKWKIDGSERQNGVLNSWTDQDSKDSTYSMSSTLTLTKDEYERHNSYTCEATHKTSTSPIVKSFNRNEC
heavy: EVKLGESGGGLVQPGGSMKLSCVASGFPFTKYWMNWVRQSPEKGLEWVAEIRLKSDNYATHYAESAKGRFTISRDDSRSSVYLQMNNLRAEDTAIYYCSPTYADTMDYWGQGTSVTVSSAKTTAPSVYPLAPVCGDTTGSSVTLGCLVKGYFPEPVTLTWNSGSLSSGVHTFPAVLQSDLYTLSSSVTVTSSTWPSQSITCNVAHPASSTKVDKKIEPRGPTIKPCPPCKCPAPNLLGGPSVFIFPPKIKDVLMISLSPIVTCVVVDVSEDDPDVQISWFVNNVEVHTAQTQTHREDYNSTLRVVSALPIQHQDWMSGKEFKCKVNNKDLPAPIERTISKPKGSVRAPQVYVLPPPEEEMTKKQVTLTCMVTDFMPEDIYVEWTNNGKTELNYKNTEPVLDSDGSYFMYSKLRVEKKNWVERNSYSCSVVHEGLHNHHTTKSFSRTPG
modifications: Mus Musculus
For orientation: IC50 means the concentration that gives 50% inhibition. A word on the Kd: it is the equilibrium constant for the complex coming apart. For B1, the IC50 in the data set with TWEAKR-Fc mutein L65Q is 0.001 to 0.15 nM; with TWEAKR-Fc mutein R56P it was > 50 nM; with TWEAKR-Fc mutein W42A, > 50 nM; in the data set with TWEAKR-Fc WT (TPP-599), 0.001 to 0.15 nM; in the data set with TWEAKR-Fc mutein S40R, 0.001 to 0.15 nM; with TWEAKR-Fc mutein H60K, 0.001 to 0.15 nM. Besides, the IC50 with TWEAKR-Fc mutein M50A and with TWEAKR-Fc mutein T33Q was 0.001 to 0.15 nM each time. In addition, the “ka” value in data set [1] worked out at 1.64e+07 M⁻¹ s⁻¹. In addition, the “kd” value in data set [1] is 0.0285 s⁻¹. The Kd in data set [2] was 0.2 nM.
